Test results taken from publication PMC2756588.

T1: Abp1, P15891
T1 sequence (P15891 535-592, looked up): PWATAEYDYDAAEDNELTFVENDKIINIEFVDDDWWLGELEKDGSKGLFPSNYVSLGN

T2: Bbc1, P47068
T2 sequence (P47068 1-78, looked up): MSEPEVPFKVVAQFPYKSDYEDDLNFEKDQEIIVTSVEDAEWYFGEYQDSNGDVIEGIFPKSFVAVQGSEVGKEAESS

T3: Boi1, P38041
T3 sequence (P38041 1-86, looked up): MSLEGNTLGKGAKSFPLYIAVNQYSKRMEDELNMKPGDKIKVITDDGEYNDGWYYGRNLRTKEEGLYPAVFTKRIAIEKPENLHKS

T4: Boi2, P39969
T4 sequence (P39969 32-116, looked up): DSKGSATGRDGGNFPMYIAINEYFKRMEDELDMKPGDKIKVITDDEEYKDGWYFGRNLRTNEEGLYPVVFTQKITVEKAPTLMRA

T5: Bud14, P27637
T5 sequence (P27637 247-328, looked up): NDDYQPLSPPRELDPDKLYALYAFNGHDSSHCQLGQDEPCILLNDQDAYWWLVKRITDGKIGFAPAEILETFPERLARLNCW

T6: Bzz1-1, P38822
T6 sequence (P38822 478-572, looked up): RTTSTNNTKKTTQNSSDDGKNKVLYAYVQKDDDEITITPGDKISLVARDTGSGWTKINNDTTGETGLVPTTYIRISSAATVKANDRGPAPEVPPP

T7: Bzz1-2, P38822
T7 sequence (P38822 568-633, looked up): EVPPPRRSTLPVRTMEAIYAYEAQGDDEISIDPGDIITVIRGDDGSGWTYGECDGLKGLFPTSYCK

T8: Cdc25, P04821
T8 sequence (P04821 50-136, looked up): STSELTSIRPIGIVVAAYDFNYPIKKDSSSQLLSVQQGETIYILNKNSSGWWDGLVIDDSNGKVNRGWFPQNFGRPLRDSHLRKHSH

T9: Cyk3, Q07533
T9 sequence (Q07533 1-83, looked up): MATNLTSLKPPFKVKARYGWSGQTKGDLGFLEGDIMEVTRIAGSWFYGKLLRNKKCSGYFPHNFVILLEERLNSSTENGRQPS

T10: Fus1, P11710
T10 sequence (P11710 432-512, looked up): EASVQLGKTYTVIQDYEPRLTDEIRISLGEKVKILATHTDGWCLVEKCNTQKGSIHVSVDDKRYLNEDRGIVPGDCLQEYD

T11: Hof1, Q05080
T11 sequence (Q05080 590-669, looked up): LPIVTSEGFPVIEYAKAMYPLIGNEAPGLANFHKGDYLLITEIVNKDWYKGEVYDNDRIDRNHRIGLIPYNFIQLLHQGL

T12: Hse1, P38753
T12 sequence (P38753 208-285, looked up): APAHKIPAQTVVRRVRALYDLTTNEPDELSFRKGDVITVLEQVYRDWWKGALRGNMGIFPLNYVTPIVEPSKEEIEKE

T13: Lsb1, P53281
T13 sequence (P53281 45-122, looked up): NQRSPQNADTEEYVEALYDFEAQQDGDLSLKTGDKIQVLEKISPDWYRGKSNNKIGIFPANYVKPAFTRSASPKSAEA

T14: Lsb3, P43603
T14 sequence (P43603 385-451, looked up): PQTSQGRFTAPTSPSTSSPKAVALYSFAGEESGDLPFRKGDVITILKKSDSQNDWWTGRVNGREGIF

T15: Lsb4, P32793
T15 sequence (P32793 402-468, looked up): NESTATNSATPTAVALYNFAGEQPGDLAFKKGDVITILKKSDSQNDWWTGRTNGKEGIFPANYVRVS

T16: Myo5, Q04439
T16 sequence (Q04439 1072-1160, looked up): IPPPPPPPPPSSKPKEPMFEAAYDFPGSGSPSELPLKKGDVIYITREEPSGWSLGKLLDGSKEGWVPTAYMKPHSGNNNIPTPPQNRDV

T17: Nbp2, Q12163
T17 sequence (Q12163 103-180, looked up): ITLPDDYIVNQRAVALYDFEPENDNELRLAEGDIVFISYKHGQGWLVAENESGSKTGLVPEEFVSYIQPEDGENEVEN

T18: Pex13, P80667
T18 sequence (P80667 295-386, looked up): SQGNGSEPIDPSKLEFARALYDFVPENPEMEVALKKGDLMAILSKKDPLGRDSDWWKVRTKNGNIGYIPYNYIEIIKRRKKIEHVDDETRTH

T19: Pin3, Q06449
T19 sequence (Q06449 53-122, looked up): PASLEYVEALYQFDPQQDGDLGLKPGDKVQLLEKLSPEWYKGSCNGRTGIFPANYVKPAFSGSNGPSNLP

T20: Sla1-2, P32790
T20 sequence (P32790 60-140, looked up): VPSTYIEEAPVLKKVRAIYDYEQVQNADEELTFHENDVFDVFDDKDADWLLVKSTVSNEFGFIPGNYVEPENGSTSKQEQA

T21: Sla1-3, P32790
T21 sequence (P32790 344-424, looked up): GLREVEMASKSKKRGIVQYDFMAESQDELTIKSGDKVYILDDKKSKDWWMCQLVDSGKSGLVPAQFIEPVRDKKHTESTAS


target: T1, Abp1, P15891; assay: SPOT array; settings: median of control spots 935

Binder	SPOT intensity
FYHRPAPKPPVTKKV	114
DRIRMFIRFPKFLLE	108
KMSRSPPRPPSLKII	326
NLPKRKPPKLQGPFS	202

target: T2, Bbc1, P47068; assay: SPOT array; settings: median of control spots 796

Binder	SPOT intensity
FYHRPAPKPPVTKKV	45
DRIRMFIRFPKFLLE	43
KMSRSPPRPPSLKII	98
NLPKRKPPKLQGPFS	31

target: Bem1-1, P29366; assay: SPOT array; settings: median of control spots 4282
Sequence (P29366 55-141): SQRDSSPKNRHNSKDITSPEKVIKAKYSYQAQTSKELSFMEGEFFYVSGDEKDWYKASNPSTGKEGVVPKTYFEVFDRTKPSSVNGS

Binder	SPOT intensity
FYHRPAPKPPVTKKV	0
DRIRMFIRFPKFLLE	0
KMSRSPPRPPSLKII	0
NLPKRKPPKLQGPFS	0

target: Bem1-2, P29366; assay: SPOT array; settings: median of control spots 4347
Sequence (P29366 139-227): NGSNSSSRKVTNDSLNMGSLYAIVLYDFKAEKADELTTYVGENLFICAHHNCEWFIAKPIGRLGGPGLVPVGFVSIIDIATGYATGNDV

Binder	SPOT intensity
FYHRPAPKPPVTKKV	4210
DRIRMFIRFPKFLLE	20
KMSRSPPRPPSLKII	567
NLPKRKPPKLQGPFS	81

target: T3, Boi1, P38041; assay: SPOT array; settings: median of control spots 1162

Binder	SPOT intensity
FYHRPAPKPPVTKKV	0
DRIRMFIRFPKFLLE	7
KMSRSPPRPPSLKII	0
NLPKRKPPKLQGPFS	2

target: T4, Boi2, P39969; assay: SPOT array; settings: median of control spots 1161

Binder	SPOT intensity
FYHRPAPKPPVTKKV	0
DRIRMFIRFPKFLLE	3
KMSRSPPRPPSLKII	0
NLPKRKPPKLQGPFS	1

target: T5, Bud14, P27637; assay: SPOT array; settings: median of control spots 956

Binder	SPOT intensity
FYHRPAPKPPVTKKV	0
DRIRMFIRFPKFLLE	8
KMSRSPPRPPSLKII	5
NLPKRKPPKLQGPFS	12

target: T6, Bzz1-1, P38822; assay: SPOT array; settings: median of control spots 4446

Binder	SPOT intensity
FYHRPAPKPPVTKKV	16
DRIRMFIRFPKFLLE	0
KMSRSPPRPPSLKII	2
NLPKRKPPKLQGPFS	9

target: T7, Bzz1-2, P38822; assay: SPOT array; settings: median of control spots 4538

Binder	SPOT intensity
FYHRPAPKPPVTKKV	186
DRIRMFIRFPKFLLE	0
KMSRSPPRPPSLKII	350
NLPKRKPPKLQGPFS	49

target: T8, Cdc25, P04821; assay: SPOT array; settings: median of control spots 969

Binder	SPOT intensity
FYHRPAPKPPVTKKV	0
DRIRMFIRFPKFLLE	77
KMSRSPPRPPSLKII	9
NLPKRKPPKLQGPFS	53

target: T9, Cyk3, Q07533; assay: SPOT array; settings: median of control spots 1451

Binder	SPOT intensity
FYHRPAPKPPVTKKV	0
DRIRMFIRFPKFLLE	2
KMSRSPPRPPSLKII	0
NLPKRKPPKLQGPFS	1

target: T10, Fus1, P11710; assay: SPOT array; settings: median of control spots 1200

Binder	SPOT intensity
FYHRPAPKPPVTKKV	0
DRIRMFIRFPKFLLE	39
KMSRSPPRPPSLKII	0
NLPKRKPPKLQGPFS	6

target: GST; assay: SPOT array; settings: median of control spots 978

Binder	SPOT intensity
FYHRPAPKPPVTKKV	0
DRIRMFIRFPKFLLE	0
KMSRSPPRPPSLKII	1
NLPKRKPPKLQGPFS	1

target: T11, Hof1, Q05080; assay: SPOT array; settings: median of control spots 4086

Binder	SPOT intensity
FYHRPAPKPPVTKKV	0
DRIRMFIRFPKFLLE	21
KMSRSPPRPPSLKII	0
NLPKRKPPKLQGPFS	24

target: T12, Hse1, P38753; assay: SPOT array; settings: median of control spots 1727

Binder	SPOT intensity
FYHRPAPKPPVTKKV	78
DRIRMFIRFPKFLLE	17
KMSRSPPRPPSLKII	14
NLPKRKPPKLQGPFS	440

target: T13, Lsb1, P53281; assay: SPOT array; settings: median of control spots 388

Binder	SPOT intensity
FYHRPAPKPPVTKKV	63
DRIRMFIRFPKFLLE	4
KMSRSPPRPPSLKII	140
NLPKRKPPKLQGPFS	0

target: T14, Lsb3, P43603; assay: SPOT array; settings: median of control spots 406

Binder	SPOT intensity
FYHRPAPKPPVTKKV	5
DRIRMFIRFPKFLLE	6
KMSRSPPRPPSLKII	54
NLPKRKPPKLQGPFS	4

target: T15, Lsb4, P32793; assay: SPOT array; settings: median of control spots 397

Binder	SPOT intensity
FYHRPAPKPPVTKKV	3
DRIRMFIRFPKFLLE	7
KMSRSPPRPPSLKII	88
NLPKRKPPKLQGPFS	20

target: Myo3, P36006; assay: SPOT array; settings: median of control spots 468

Binder	SPOT intensity
FYHRPAPKPPVTKKV	37
DRIRMFIRFPKFLLE	18
KMSRSPPRPPSLKII	81
NLPKRKPPKLQGPFS	42

target: T16, Myo5, Q04439; assay: SPOT array; settings: median of control spots 471

Binder	SPOT intensity
FYHRPAPKPPVTKKV	12
DRIRMFIRFPKFLLE	2
KMSRSPPRPPSLKII	64
NLPKRKPPKLQGPFS	3

target: T17, Nbp2, Q12163; assay: SPOT array; settings: median of control spots 357

Binder	SPOT intensity
FYHRPAPKPPVTKKV	314
DRIRMFIRFPKFLLE	52
KMSRSPPRPPSLKII	513
NLPKRKPPKLQGPFS	56

target: T18, Pex13, P80667; assay: SPOT array; settings: median of control spots 1341

Binder	SPOT intensity
FYHRPAPKPPVTKKV	143
DRIRMFIRFPKFLLE	38
KMSRSPPRPPSLKII	124
NLPKRKPPKLQGPFS	11

target: T19, Pin3, Q06449; assay: SPOT array; settings: median of control spots 2171

Binder	SPOT intensity
FYHRPAPKPPVTKKV	19
DRIRMFIRFPKFLLE	30
KMSRSPPRPPSLKII	69
NLPKRKPPKLQGPFS	6

target: Rvs167, P39743; assay: SPOT array; settings: median of control spots 2707
Sequence (P39743 419-482): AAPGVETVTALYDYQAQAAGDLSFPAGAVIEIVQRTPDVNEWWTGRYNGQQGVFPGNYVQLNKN

Binder	SPOT intensity
FYHRPAPKPPVTKKV	0
DRIRMFIRFPKFLLE	0
KMSRSPPRPPSLKII	67
NLPKRKPPKLQGPFS	0

target: Sho1, P40073; assay: SPOT array; settings: median of control spots 1148
Sequence (P40073 287-367): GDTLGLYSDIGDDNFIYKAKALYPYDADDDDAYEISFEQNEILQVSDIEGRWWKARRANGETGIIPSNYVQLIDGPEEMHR

Binder	SPOT intensity
FYHRPAPKPPVTKKV	8
DRIRMFIRFPKFLLE	71
KMSRSPPRPPSLKII	55
NLPKRKPPKLQGPFS	121

target: T20, Sla1-2, P32790; assay: SPOT array; settings: median of control spots 712

Binder	SPOT intensity
FYHRPAPKPPVTKKV	0
DRIRMFIRFPKFLLE	0
KMSRSPPRPPSLKII	8
NLPKRKPPKLQGPFS	1

target: T21, Sla1-3, P32790; assay: SPOT array; settings: median of control spots 5475

Binder	SPOT intensity
FYHRPAPKPPVTKKV	2040
DRIRMFIRFPKFLLE	24
KMSRSPPRPPSLKII	88
NLPKRKPPKLQGPFS	213
